Measurements taken from patent publication US20160152733A1.
Changes are numbered by the printed parent chain. Values belong to the binder of their own block, whether it stands above or below them.

Tests used:
[1] = molecular target: human CD45R0 antigen (splice variant/isoform CD45R0 of CD45 antigen, PTPRC), cell-bound (human) (UniProt P08575); test: flow cytometry on human PBMC, from max. MFI; muCD45R0 set to 100%
[2] = molecular target: human CD45R0 antigen (splice variant/isoform CD45R0 of CD45 antigen, PTPRC), cell-bound (human) (UniProt P08575); test: flow cytometry, indirect staining of human PBMC, Fab 1-10 µg/mL + anti-His-PE
[3] = molecular target: human CD45R0 antigen (splice variant/isoform CD45R0 of CD45 antigen, PTPRC), cell-bound (human) (UniProt P08575); test: flow cytometry on human PBMC, from median fluorescence at 5 µg/mL; muCD45R0 set to 100%
[4] = molecular target: human CD45R0 antigen (splice variant/isoform CD45R0 of CD45 antigen, PTPRC), cell-bound (human) (UniProt P08575); test: flow cytometry, human PBMC gated on living CD45RA-negative WBC, Fab 5 µg/mL + anti-His-PE
[5] = molecular target: human CD45R0 antigen (splice variant/isoform CD45R0 of CD45 antigen, PTPRC), cell-bound (human) (UniProt P08575); test: flow cytometry on human T cells, from median fluorescence at 5 µg/mL; muCD45R0 set to 100%
[6] = molecular target: human CD45R0 antigen (splice variant/isoform CD45R0 of CD45 antigen, PTPRC), cell-bound (human) (UniProt P08575); test: flow cytometry, biotinylated Fab 5 µg/mL on human CD3+ CD45RA- T cells, donor 1 (text: anti-Biotin-PE; table head: anti-HIS-PE)
[7] = molecular target: human CD45R0 antigen (splice variant/isoform CD45R0 of CD45 antigen, PTPRC), cell-bound (human) (UniProt P08575); test: flow cytometry, biotinylated Fab 5 µg/mL on human CD3+ CD45RA- T cells, donor 2 (text: anti-Biotin-PE; table head: anti-HIS-PE)
[8] = molecular target: human CD45R0 antigen (splice variant/isoform CD45R0 of CD45 antigen, PTPRC), cell-bound (human) (UniProt P08575); test: flow cytometry on human PBMC, from median fluorescence at 5 µg/mL; relative to muCD45R0 = 100%
[9] = molecular target: human CD45R0 antigen (splice variant/isoform CD45R0 of CD45 antigen, PTPRC), cell-bound (human) (UniProt P08575); test: flow cytometry on human PBMC, from max. MFI; relative to muCD45R0 = 100%

- relative affinity (%) [1]: 100%
- max. mean fluorescence (anti-HIS-PE) [2]: 37
- relative affinity (%) [3]: 100%
- median fluorescence (anti-HIS PE) [4]: 26
- relative affinity (%) [5]: 100%
- median fluorescence, donor 1 [6]: 8
- median fluorescence, donor 2 [7]: 21
B1: Fab variant "muCD45R0" (chimeric Fab: variable regions of parental murine CD45R0 antibody clone UCHL1, human constant regions) (Fab, V domains shown, not shown: small tags and cut ends)
VH: QITLKESGPGILQPSQTLSLTCSFSGFSLTTYGIGVGWIRQPPGKGLEWLTHIWWNDNKYYNTALRSRLTISKDSSNNQVLLKIANVDTADTATYYCLYGYTYWGQGTLVTVSA
VL: DVVMTQTPLSLPVSLGDQASISCRSSQSLLYSNGNTYLHWYLQKPGQSPKLLIYKLSNRFSGVPDRFSGSGSGTDFTLKISRVEAEDLGVYFCSQSTHVPWTFGGGTKLEIKR

- median fluorescence (anti-HIS PE) [4]: 43
- relative affinity (%) [8]: 165%
- median fluorescence, donor 1 [6]: 9.5
- median fluorescence, donor 2 [7]: 24
B2: Fab variant "huCD45R0_v3" (humanized, germline IGHV2-5*01 / IGKV2-30*01 framework with backmutations) (Fab, V domains shown, not shown: small tags and cut ends)
VH: QITLKESGPTLVKPTQTLTLTCTFSGFSLTTYGIGVGWIRQPPGKALEWLTHIWWNDNKYYSPSLKSRLTITKDSSKNQVVLTMTNMDPVDTATYYCLYGYTYWGQGTLVTVSA
VL: B1 VL with S14T, D17Q, Q18P, L42Q, K44R, K50R, L88V, F92Y

- relative affinity (%) [9]: 8%
- max. mean fluorescence (anti-HIS-PE) [2]: 3
B3: Fab variant "huCD45R0_v1" (humanized, 4D5 framework with backmutations) (Fab, V domains shown, not shown: small tags and cut ends)
VH: EVQLVESGGGLVQPGGSLRLSCAFSGFSLTTYGIGVGWIRQAPGKGLEWLTHIWWNDNKYYADSVKGRFTISKDSSKNTVYLQMNSLRAEDTAVYYCLYGYTYWGQGTLVTVSS
VL: DIQMTQSPSSLSASVGDRVTITCRSSQSLLYSNGNTYLHWYQQKPGKAPKLLIYKLSNRFSGVPSRFSGSRSGTDFTLTISSLQPEDFATYYCSQSTHVPWTFGQGTKVEIKR

- median fluorescence (anti-HIS PE) [4]: 8
- relative affinity (%) [8]: 31%
B4: Fab variant "huCD45R0_v2" (humanized, 4D5 framework with extended backmutations) (Fab, V domains shown, not shown: small tags and cut ends)
VH: B3 VH with E1Q, V2I, K66R
VL: B3 VL with I2V, Q3V, S7T, T22S, S65D, R71G
